Test results as given in publication PMC8691648, “Heterophilic and homophilic cadherin interactions in intestinal intermicrovillar links are species dependent” (PLoS Biology, 2021).
Each block holds one molecule with its values, some of them ahead of it.

Columns and labels:
[1] = molecular target: mm PCDH24 EC1-2Fc (mouse); assay: SPR; OpenSPR (Nicoya); mm PCDH24 EC1-2Fc immobilised on a Protein A sensor chip (>800 RU); mm CDHR5 EC1-2 injected at 2 to 23.5 uM; 20 mM Tris HCl pH 7.5, 150 mM NaCl, 50 mM KCl, 2 mM CaCl2, 0.5 mM TCEP, 1% BSA; 20 uL/min; kinetic fit, 1:1 model
[2] = molecular target: the molecule itself; assay: bead aggregation assay; homophilic; Protein G Dynabeads coated with one Fc fusion captured from concentrated serum-free medium and washed; 50 mM Tris pH 7.5, 100 mM NaCl, 10 mM KCl, 0.2% BSA, 2 mM CaCl2; 60 min on a depression slide, then rocking 1 to 2 min
[3] = molecular target: the molecule itself; assay: crystal structure; contacts between copies of one fragment in the crystal (asymmetric unit or symmetry mates); vapor diffusion at 4 °C

- Kd [1]: 16 µM
Molecule: mm CDHR5 EC1-2 (domain or fragment)

B1: hs PCDH24 EC1-MAD10Fc (Fc fusion, human)
chain: NVAPKFLANMTSVILPEDLPVGAQAFWLVAEDQDNDPLTYGMSGPNAYFFAVTPKTGEVKLASALDYETLYTFKVTISVSDPYIQVQREMLVIVEDRNDNAPVFQNTAFSTSINETLPVGSVVFSVLAVDKDMGSAGMVVYSIEKVIPSTGDSEHLFRILANGSIVLNGSLSYNNKSAFYQLELKACDLGGMYHNTFTIQCSLPVFLSISVVDQPDLDPQFVREFYSASVAEDAAKGTSVLTVEAVDGDKGINDPVIYSISYSTRPGWFDIGADGVIRVNGSLDREQLLEADEEVQLQVTATETHLNIYGQEAKVSIWVTVRVMDVNDHKPEFYNCSLPACTFTPEEAQVNFTGYVDEHASPRIPIDDLTMVVYDPDKGSNGTFLLSLGGPDAEAFSVSPERAVGSASVQVLVRVSALVDYERQTAMAVQVVATDSVSQNFSVAMVTIHLRDINDHRPTFPQSLYVLTVPEHSATGSVVTDSIHATDPDTGAWGQITYSLLPGNGADLFQVDPVSGTVTVRNGELLDRESQAVYYLTLQATDGGNLSSSTTLQIHLLDINDNAPVVSGSYNIFVQEEEGNVSVTIQAHDNDEPGTNNSRLLFNLLPGPYSHNFSLDPDTGLLRNLGPLDREAIDPALEGRIVLTVLVSDCGEPVLGTKVNVTITVEDINDNLPIFNQSSYNFTVKEEDPGVLVGVVKAWDADQTEANNRISFSLSGSGANYFMIRGLVLGAGWAEGYLRLPPDVSLDYETQPVFNLTVSAENPDPQGGETIVDVCVNVKDVNDNPPTLDVASLRGIRVAENGSQHGQVAVVVASDVDTSAQLEIQLVNILCTKAGVDVGSLCWGWFSVAANGSVYINQSKAIDYEACDLVTLVVRACDLATDPGFQAYSNNGSLLITIEDVNDNAPYFLPENKTFVIIPELVLPNREVASVRARDDDSGNNGVILFSILRVDFISKDGATIPFQGVFSIFTSSEADVFAGSIQPVTSLDSTLQGTYQVTVQARDRPSLGPFLEATTTLNLFTVDQSYRSRLQFSTPKEEVGANRQAINAALTQATRTTVYIVDIQDIDSAARARPHSYLDAYFVFPNGSALTLDELSVMIRNDQDSLTQLLQLGLVVLGSQESQESDLSKQLISTVPRARDPPV
notes: protocadherin-24 (PCDH24, also CDHR2), human, full-length extracellular domain EC1 to MAD10; DNA cloned with the signal peptide, protein secreted; numbers count on: the mature protein; linker between the PCDH24 fragment and the Fc tag in the CMV vector; also called Fc-tagged full-length hs PCDH24 extracellular domain; human protocadherin-24; not shown: Fc, C-terminal, kept
- binding result [2]: binds

B2: hs PCDH24 EC1-2 (mammalian-produced, form II crystal) (domain or fragment, human)
chain: NVAPKFLANMTSVILPEDLPVGAQAFWLVAEDQDNDPLTYGMSGPNAYFFAVTPKTGEVKLASALDYETLYTFKVTISVSDPYIQVQREMLVIVEDRNDNAPVFQNTAFSTSINETLPVGSVVFSVLAVDKDMGSAGMVVYSIEKVIPSTGDSEHLFRILANGSIVLNGSLSYNNKSAFYQLELKACDLGGMYHNTFTIQCSLPVFLSISVVDQPDLDTVPRARDPPVGG
modifications: N-linked glycosylation at N9
notes: protocadherin-24 (PCDH24, also CDHR2), human, repeats EC1-2; DNA cloned with the signal peptide in a CMV vector, protein secreted; the structure includes residues N1 to D218; numbers count on: the mature protein; The range is that of the residues in the structure; The crystallised sample also held mammalian-produced hs CDHR5 EC1-2, which is not in the structure; also called Hs PCDH24 EC1-2 II; …
- binding result [3]: binds
